Laboratory results published in US20120263730A1 (DEUTSCHES KREBSFORSCHUNGSZENTRUM, published 2012).

T1: mouse Syndecan-1 (mouse, UniProt P18828 23-311, glycosaminoglycan chains (sites not given))
T1 construct: whole, on cells; Expressed on transfected HEK293T cells; also called Sdc1; mSdc1
T1 sequence (looked up): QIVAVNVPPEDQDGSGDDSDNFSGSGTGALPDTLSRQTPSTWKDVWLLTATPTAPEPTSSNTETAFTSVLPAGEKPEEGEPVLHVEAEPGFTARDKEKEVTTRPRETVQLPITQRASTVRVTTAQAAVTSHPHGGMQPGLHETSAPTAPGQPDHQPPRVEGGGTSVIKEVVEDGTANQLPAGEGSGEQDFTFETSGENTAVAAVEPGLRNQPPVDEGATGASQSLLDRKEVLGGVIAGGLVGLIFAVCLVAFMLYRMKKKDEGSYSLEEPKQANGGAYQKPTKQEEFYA

T2: Wnt5aV5 (V5-tagged Wnt5a) (mouse, UniProt P22725 62-380, limits assumed)
T2 construct: The construct text says 'mWnt3a was subcloned' for pPGKmWnt5aV5, which is probably a slip; Conditioned medium from stably transfected L cells; also called mWnt5aV5; recombinant Wnt5a; not shown: V5 tag
T2 sequence (looked up): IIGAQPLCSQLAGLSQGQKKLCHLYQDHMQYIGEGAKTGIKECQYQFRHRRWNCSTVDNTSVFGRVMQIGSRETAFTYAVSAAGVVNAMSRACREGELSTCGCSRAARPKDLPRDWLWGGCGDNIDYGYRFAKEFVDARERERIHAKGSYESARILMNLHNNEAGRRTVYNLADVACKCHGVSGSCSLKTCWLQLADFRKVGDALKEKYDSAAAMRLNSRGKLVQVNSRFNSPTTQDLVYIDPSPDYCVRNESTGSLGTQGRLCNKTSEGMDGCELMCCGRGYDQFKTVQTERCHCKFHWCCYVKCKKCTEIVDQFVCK

T3: hRspo3ΔC-AP (human Rspondin-3 aa 1-209 fused to alkaline phosphatase) (human, UniProt Q9BXY4 22-209)
T3 construct: partially purified for the in vitro assay; also called Rspo3-AP; hRspo3-AP; not shown: alkaline phosphatase (AP) tag
T3 sequence: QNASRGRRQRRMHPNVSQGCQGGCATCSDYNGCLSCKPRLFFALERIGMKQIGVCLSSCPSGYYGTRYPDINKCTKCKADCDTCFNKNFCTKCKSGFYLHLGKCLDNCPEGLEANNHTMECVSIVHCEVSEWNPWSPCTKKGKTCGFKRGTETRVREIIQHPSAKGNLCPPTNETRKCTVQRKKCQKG

B1: hRspo1-AP (human Rspondin-1 fused C-terminally with alkaline phosphatase) (ligand, UniProt Q2MKA7 21-263, looked up)
chain: SRGIKGKRQRRISAEGSQACAKGCELCSEVNGCLKCSPKLFILLERNDIRQVGVCLPSCPPGYFDARNPDMNKCIKCKIEHCEACFSHNFCTKCKEGLYLHKGRCYPACPEGSSAANGTMECSSPAQCEMSEWSPWGPCSKKQQLCGFRRGSEERTRRVLHAPVGDHAACSDTKETRRCTVRRVPCPEGQKRRKGGQGRRENANRNLARKESKEAGAGSRRRKGQQQQQQQGTVGPLTSAGPA
notes: Used as conditioned medium from HEK293T cells; also called hRspol-AP; not shown: alkaline phosphatase (AP) tag
B2: human Syndecan-4 (receptor)
chain: ESIRETEVIDPQDLLEGRYFSGALPDDEDVVGPGQESDDFELSGSGDLDDLEDSMIGPEVVHPLVPLDNHIPERAGSGSQVPTEPKKLEENEVIPKRISPVEESEDVSNKVSMSSTVQGSNIFERTEVLAALIVGGIVGILFAVFLILLLMYRMKKKDEGSYDLGKKPIYKKAPTNEFYA
modifications: glycosaminoglycan chains (GAGs)
notes: Expressed on transfected HEK293T cells; also called Sdc4; hSdc4
B3: N-streptag Sdc4ΔTMC (human Syndecan-4 extracellular domain, last 52 amino acids deleted, N-terminal Streptag-HA-CBP) (receptor)
chain: ESIRETEVIDPQDLLEGRYFSGALPDDEDVVGPGQESDDFELSGSGDLDDLEDSMIGPEVVHPLVPLDNHIPERAGSGSQVPTEPKKLEENEVIPKRISPVEESEDVSNKVSMSSTVQGSNIFERTE
modifications: sulfated glycosaminoglycan chains (GAGs)
notes: The Sdc4 signal peptide was replaced by that of mKremen2; Partially purified from conditioned medium of HEK293T cells and captured on streptavidin-coated plates; also called N-streptag-hSdc4ΔTMC; purified extracellular domain of Sdc4; not shown: Streptag-HA-CBP fragment of the pGLUE expression vector

Experiments:
mouse Syndecan-1 = target: T1, mouse Syndecan-1; assay: cell surface binding, AP fusion on transfected HEK293T cells
From the text: (§1) (A) Rspo2 and Rspo3 bind to Syndecan-1, Syndecan-2, Syndecan-3 and Syndecan-4. […] HEK293 T-cells were transfected with indicated plasmids and alkaline phosphatase tagged Rspo1, Rspo2, Rspo3 and Rspo4 proteins were applied for cell surface binding as indicated. Cells were transfected with indicated plasmids and conditioned media containing alkaline phosphatise (AP)-fusion proteins of R-spondins were applied for cell surface binding and AP staining as indicated. (B) Cells were transfected with indicated plasmids and incubated with or without NaClO₃. After 24 h Rspo3-AP was applied for binding and proceeded for staining. (C) In vitro binding assay with N-streptag Sdc4ΔTMC purified from conditioned media of control or NaCIO₃ treated cells with purified Rspo3-AP (RU, relative units). (D) Scatchard plot analysis for in vitro binding assays with purified N-streptag Sdc4ΔTMC and Rspo3-AP. (E) Rspo3 binds to Glypican-1, Glypican-2, Glypican-3, Glypican-4, Glypican-5 and Glypican-6.
(§2) Protein conditioned media were produced by transient transfection of HEK293T cells with plasmids encoding fusion proteins: hRspol-AP, hRspo2ΔC-AP, hRspo3ΔC-AP, hRspo3TSP-AP, and dkk1-AP in complete DMEM. XWnt8-hFzd5 fusion was produced in serum-free medium (OPTIMEM I, Gibco) and conditioned medium was concentrated about 100-fold using Centricon Plus-20 filters (Millipore). Wnt5aV5 protein conditioned media was produced using L cells stable transfected with pWnt5aV5. For cell-surface binding experiments, 293T cells were plated on polylysine coated plates, transfected with genes to be tested using FuGENE 6 (Roche) for 48 h, incubated with conditioned media containing fusion proteins for 2 h on ice, washed with Hank's buffer, fixed for 30 min with 0,5mM DSP (Pierce) in Hank's-100mM HEPES, pH 7,2, washed with 0,1 M Tris pH 8,0 and stained with Fast Red (Roche). […] It should be compared with background staining obtained from cells transfected with control plasmid or other genes that are not able bind applied fusion protein.

mouse Syndecan-3 = target: T4, mouse Syndecan-3 (mouse, UniProt Q64519 45-442, glycosaminoglycan chains (sites not given)); assay: as above
T4 construct: whole, on cells; Expressed on transfected HEK293T cells; also called Sdc3; mSdc3
From the text: as §1, §2

[1] = target: B1; assay: as above
From the text: as §1, §2

[2] = target: T2, Wnt5aV5 (V5-tagged Wnt5a); assay: cell surface binding on transfected HEK293T cells
From the text: (A-C) Cell surface binding assays. (A, D) Rspo3 binds to syndecan 4 and glypican 3. HEK293T cells were transfected with indicated plasmids and V5-tagged Wnt5a or alkaline phosphatase tagged Rspo3, Dkk1, or TSP proteins were applied for cell surface binding as indicated. (B, C, E, F) Cells were transfected with indicated plasmids and conditioned media.
as §2

[3] = target: T3, hRspo3ΔC-AP (human Rspondin-3 aa 1-209 …); assay: in vitro binding assay: N-streptag Sdc4ΔTMC on streptavidin-coated plates, serially diluted hRspo3ΔC-AP, bound AP activity by chemiluminescence, Scatchard plot
Experimental: For the in vitro binding assay white, high binding ELISA 96 well plates (Greiner) were coated overnight at 4° C. with 100 μL of 2 μg/mL Streptavidin in bicarbonate buffer (NaHCO₃, 50 mM, pH 9,6). Wells were washed 6 times with […] TBST and incubated with […] of blocking buffer (5% BSA, 1mM MgCl₂ on TBST) on a shaker for 1h at RT. The wells were loaded with […] N-streptag Sdc4ATMC protein in blocking buffer and allowed to bind overnight on a shaker at 4° C. Wells were washed 6 times with […] TBST and incubated with […] of blocking buffer for 1 h. For the binding experiments, […] of serially diluted hRspo3ΔC-AP were placed in wells coated with blocking buffer or N-streptag Sdc4ΔTMC. After 2 h incubation at RT wells were washed 6 times with […] TBST. Bound AP activity was measured using chemiluminescent SEAP Reporter Gene Assay (Roche). For each dilution, background binding value was subtracted from hRspo3ΔC-AP value. Binding data were analyzed by Scatchard plot using Excel.

T4 sequence (Q64519 45-442): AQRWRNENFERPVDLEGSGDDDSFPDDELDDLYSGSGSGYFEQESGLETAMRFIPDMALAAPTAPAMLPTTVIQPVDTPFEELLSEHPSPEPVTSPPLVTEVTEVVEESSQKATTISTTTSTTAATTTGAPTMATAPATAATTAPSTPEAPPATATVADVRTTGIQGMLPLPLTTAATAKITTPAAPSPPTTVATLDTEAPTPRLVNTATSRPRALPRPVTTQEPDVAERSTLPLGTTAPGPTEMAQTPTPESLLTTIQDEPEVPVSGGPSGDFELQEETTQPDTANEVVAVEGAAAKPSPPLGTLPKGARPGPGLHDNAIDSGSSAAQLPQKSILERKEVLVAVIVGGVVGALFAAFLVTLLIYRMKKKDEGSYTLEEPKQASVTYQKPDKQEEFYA

Binder: B1
binding result (mouse Syndecan-1): no binding
binding result (mouse Syndecan-3): no binding

Binder: B2
binding result [1]: no binding
binding result [2]: no binding

Binder: B3
Kd [3]: 880 pM
